From a protein production outcome set (Wang et al. 2014)

Experiment: label from the status in PepcDB records

Sequence	protein production
MNNRKKNIQYLVYSKVIYRIGDVMFDFANNTFLAGLNPASLSLVAVYQSLESVIGVLFNLFGGVIADSFKRKKIIITTNILCGTACLVLSFLTKEQWLVYAIVLTNVILAFMSAFSSPSYKAFTKEIVKKDSISQLNSLLETTSTVIKVTVPMVAIFLYKLLGIHGVLLLDGLSFLIAALLISFILPVNDEVVIKEKVTIREIFNDLKIGFKYVYSHKSIFIITVLSALVNFFLAAYNLLLPYSNQMFGEISTGLYGTFLTAEAIGGFIGAILSGFVNKELSSMRLILFLSLSGLMLMLAPPFYIMFHNAIILALSPALFSLFLSIFNIQFFSLVQKDVDNDFLGRVFGIIFTITILFMPIGTGFFSVALNPNNSFNLFIIGSCITTLSLVFRILFKKYNIR	failed
MKSLETMARYKKELTECARNLKLPFLAEHLDEILHEAQEKQQTYSEFLSTCLMRELRDKERRSYLTRLKFAGLPARYDLDLYDFSRTEGIDQRQMRELRELVWIRRTYNLLLVGDSGTGKTFIASGLIHEAVKAGYKAYLLTLEELFVCLKTKEISRPAMKTYKRIMKAQLLAIDDVTLFPLKGEDVLLLFKLVNCVQGKTSLIITASRDLTGWLEMAGDEVCAAALLDRLLYCCEIIRLSGKSYRMENRKTIFSNQQIGTASLEHHHHHH	failed
MPRYKTVEQVLSLMKDRTRVRNIGIIAHVDHGKTTTSDTLLAASGIISPKVAGEALALDYLNVEQQRGITVKAANISLYHEAEGKGYVINLIDTPGHVDFSGRVTRSLRVLDGSIVVVDAVEGIMTQTETVLRQSLEERVRPILFINKVDRLVKELKLSPQEMLNRLLDIIRQVNNLIDMYGEPEFKEKWMINPQAGNVIFGSAKDKWGFSLPMAQKKGINMKNVIDAYTASDKSKLEELAAQAPINEALLDAAIKFVPNPIEAQKYRIPKIWKGDLDNELAKAMLNADPNGPIVFMITDMKVDPHAGLVATGRVFSGTLRSGEELWLVNAKTSQRILQVSLYMGPTRELAEEIPAGNIAAVLGLDRARSGETAISVGFSNVQGSFERLHYISEPVVTIAVEPKNPKDLTKMIDALRKLSIEDPNLVVKINEETGEYLLSGMGFLHLEVSLQLLRENYGIDVVTTPPIVVYRESIRAKSQVFEGKSPNKHNKFYLSVEPLNDKTIELISNGTIREDMDSKEMAKILRDEASWDYDEAKRIIAIDENVNVFVDLTSGVQHLREVMDTVLQGFRLAMKEGPLAHEPIRGVKVILHDAVIHEDPAHRGPAQIYPAVRNSIFAGFLTSRPTLLEPIQKLDIRVPADLIGNVTAVITRKRGKILDVSQIANMSRITAEIPVSESYDMASELRGSTGGRAFWGTEFSRWAPVPDSILLDVVTKIRERKGLPKELPKVEDFLS	failed
MREEELNTEKVVAAIANPVENEVRKVWEDVVEKIEQRVAVIEQASHKLLQNKVSEEILSKAKVEAHKLAGSLGMFGSDEGSQIAQEIESLLDNGKKLKASGGKHLGQVVELEHHHHHH	failed
MKKGIFTALLFTVIVALYSLHLANGKCVYKSNISSLLLENIEALAADEDGSDDGEVVGGKIRCIDVGSLDCPLTHEKVKYIVRGYSL	failed
YDQVTRIIGVAKDITDQIEASESLRDSEQRYRMLAESISDVIFSTDSKLSLNYVSPSVHAVLGYDVEWIFQNGWQSTIANPQQLSGIYTLMDRVSKALDKPEQLAQLRSQVQTQLFLFDCLRADGRKIPIELRLVLVWDEHGAFEGVLGVGRDISQQRRAEKDLRMAATVFEHSTS	failed
MELNNTIATPLYKQLEKKLQQEIDSGKRPAGSRLPTENELSKAYNVSRVTVRKALAELSESGYLERKSGKGTFVAEKKLERGITNGVLGFSEMCKMMNAIPGAKIIKIALEEPSEKDIQKMSLNKDEKVLVLERVRYANGKPVLLELNKFPESFSFLFEENLTDASLYDILEQHNIILDHSRKTLDIVFADTKEAKTLGISRGYPLLRINSIIHNADNTITNLCQQLCIGDKFTFII	failed
MFLRIANKILKRLAGVQVIPVNKKRLSVLDNKHLHIASNSILLEGTSLDFRQEISSSDTYVSIGGYCLIKAIFTFETTTGLITIGNNVHIGNAHFICRSAITIHDDVTMAWGITLYDHNSHSIHWEERKDDNKTCYEDFVQHHGNNIVNKNWINVLSRPIVIESKAWIGFNVTILKGVTIGEGAVIGACSVVTKDVPAWTVVAGNPAAVVKHLQKPE	failed
MASTDYHVDLTNCDREPIHIPGYIQPHGCLIACDNAMRMVLRHSENCGELLGLEGDLNGRTAEDVLGKKLVHDLRNALTVTGRTTRPAMLPAMETSDGRSFDISLHRYKSTTIIEFEPSGSDAQPLGTARKMVDRIREADSVESLISRTTRLVKATLGYDRVMIYRFQEDGAGKVVSEAKQPELESFLGQYFPASDIPQQARALYLKNTLRIISDASGTRIPVLPAVDVSGEPLDLSYAHLRSVSPIHCEYLRNMGVAASMSISVIVDGALWGLIACHHYSPRVLSMPVRIAAEMFGEFFSMHLQVLKQKRRLDTINHAHAALDRFLRLAAHHANIEELLVDSFQDFADLMPCDGVGLWVGNNWHGHGATPPHDAIPRLARFVASASEGRVWATHALSQAIPEAEIYAGTAAGMLAIPLSQVKSDYLLFFRKEIVQNLNWAGNPEKSYETGPMGDRLTPRKSFAIWKETVRLQAQPWSEADREIAEAARIALVEVAFHHSELMAGERERAEVRQRMLNEELNHRVKNVLAIIKSLVGNPSQEGKTLQEYVTALKGRIQALSFAHDQIIRGEGGGALRDLLEAELSPHRSPETTVKLEGPQITLDSRAFSVMALVLHELATNAAKYGALSQNGGQLHVRWDVNENRDCEISWRETLLTTLPAPSRAGFGTALISRSIPYDLGGRSTIRYLPNGLEAEILLPFRHVSSVSAAFETKTEAETLPQPRRYNREEPLKVLLVEDQMLIAMDVENMLEDNGIKAIETATSSAMAIEKLKTYLPDVAILDINLGSDTSIPVARELHRRGIPFLFATGYADGSMVPDEFGAVPVIRKPYDEDALMAGIGVLVGDTERV	failed
KLHYKQIVWVKLGNYRWWPAEICNPRSVPLNIQGLKHDLGDFPVFFFGSHDYYWVHQGRVFPYVEGDKSFAEGQTSINKTFKKALEEAAKRFQELKA	not failed
MRLNGDVGWLWDWLAAAGLEPRALGEAAVLCALKRRLDAAGCTAAAYPARLAADAEERARLLDAVLVPETWFFREPPAFEALAESAARHRLQRRSVPFHVLSLGCSTGEEPWSIVIALREAGMRKGDFRVEALDISARAIEAARAGIYGGRSFRSPGDGTWRSRYFDELGDGRYRVKDGLRGDVEYRVAHLGDPGWGGGRRYQAVFCRNVLIYLRAELRARIMDQCRDALDPGGLLVLGHADGIGGPDRGFRRHGVAGAFSWIRRDAAEAEPPPARSSRPLAAKAVRRDAPGEAKPSGPDLLSGGRETGRAAPFDEGAVLGTARALADGGNYQAAERLCQSHLASHPHDPEVHALLGIVMSAANRDDEALRYFRQALYLAPSHNESLLHLAALYERRGDEERARHFRNRSAAAEGEP	failed
MSVADVALSPIHRGSAFAVGGFGQSTTTHYSVKSVLVFLSVSGSTMPMLILESDSIAEVKLRIQTCNGFRVRRQKLVFSGRELARNASRVKDYGVTGGSVLHLVLKLYDPLLVTVITTCGKVFQFHVDRRRNVGYLKKRISKEGKGFPEVDDQEILFKGEKLDDNRIIDGICKDGNSVIHLLVKKSVEDTVKREEDTATGKDSLLEPLFLTPM	failed
MAAGRHCRAPHRCQTHPRLIALGHNHRMNAQLTQELPEFPTWLNARPSTLQEHRGRALVLAFVNASSVWCAERLAELAHWQARSPGRLQVIVVQVPRFDSERLPQRSLKQLRGHGVSAPILLDKDWETWRRFGIESWPTLVLLDAYGRERQRLVGVTGDLDKALTALCEGQPPPSDADLHGVAEREPEPHLALRFPTGLAATEDRLYVADTGHHRVLECTHSGRVLRQFGHGNADLIDGGVGEAAFRRPQGLALERDQLYVADTGNHALRRINLRSGQVDTLCGTGRSGEPVEGPLASPGGSALNYPQGLAIADNQVLIAMAGDNRIWSYHLGRAALTARAGTGALEIRDGSGHLAAFAQPAGLASVQQVAYVCDGLGSSIRTMQLRGDLVQTLVGGQGTWQFGDQDGPRSTARLQFPQAIALAADSPLLWIADTGNGRLRCLRLGGGELTTVALPRRLHGPAGLAVAAGAVWIAETDAHAILRYDLASGALSDVSIDE	failed
LEQVQESKAESTAPSSDAVVVSKTNTSSMPVAELRSLIDDLTTQMGTAARELKFELAGRLRDEIAELKKELRGMEEIGLA	failed
MWRRSLTESHSNELRLELTSRIVSAYLSRNVIAPSELPHLIQQTYGSLGKTSEPTKTPATVEEQRPAVPIKKSVTDDFIVCLEDGKSFKSLKRHLMAKYALTPEQYREKWKLPADYPMVAPNYARKRSELARATGLGKKSAANLSPSLQAVRSA	not failed
MSYERPLLAPLRAALSRPTPVVHVLIGPRQVGKTTITRQIQESIGISSIYATADSLVPLDSAWIETQWRRAVAEEAASGGPEIRVLILGSSALLMQQGLTESLAGRFFLHRCTHWGYPALEHHHHHH	failed
MMEQEIWVRVTRAAAKRKASTAMGIDEDRLNKKRVFLGELLNVSNVNLLSNLN	failed
MELVDRYIAAVQRELPEDKRQEIGRELKANICDQLDALAEHAELTESQIADVLQQMGHPAQVAQQFVPPTPIVASEDISLFKHTLVMVLGVLFVLQVVSGATQWLGSTEGSLFGFIRHIASGFIVDACFAFTAILLSFWSISAQGKVMFGGRCQHWQPQNLPNVGPDWQHISLSDVFSDLATYLFLLLLIWNNLWMSADQLAARSVIFSANAQQLLQWFSPVILLSLLNTLWQLLRRLWTAPLLLANAGVNLAYALCLVFLAFSSPLLQYQGGEVEGIFTLQQLDTWLGHALLVTALFPGYECIRDMLRWRKLTAH	failed
MSHCSCHDKPQHSLLPAAYRILSITRHTPLEWNFRVAVDFPAHWGQFVEVSLPRVGEAPISVSDYGDGWIDLLIRNLGKVTSALFTLKEGDNVWLRGCYGNGYPVDTLRHKPLLVVAGGTGVAPVKGLMRYFVENPQEIGQLDMILGYKNRDCVLYKEEMATWRGKHNLVLTLDEGEADDRYQIGRVTDRLADMTLSDIDTMQAIVVGPPIMITFTVKMLLQKGLKPEQIWVDYERRMACSVGKCGHCRMGEVYVCTDGPIFNYAVAQRFAD	failed
MRRRKAPVREVLGDPVYGNKVVTKFINKMMFDGKKSVAEKIIYKAFNKIEEKSGEKGIEVFEKALERVRPLVEVRSRRVGGATYQVPVEVRASRQQSLSIRWILEATRKRNERMMVDRLANELMDAASDKGAAFKKKEDVHKMAEANKAFAHYRW	failed
MGRFHQYQPRQLSVASVNHADDNDRLPAISLVTPSFNQASFVEKTLESVLGQNYPKLQYIVQDGLSTDGTREILGRYATRNVDIRIETDGGQTDALNKGFAHADGEIMGYLNSDDLLLPGTLCLVGRYFRDNPSVDVIYGNRLIVDEAGREVGRWVLPEHDSEILTFIDYVPQETMFWRRRIWERVGGRFDTDFHFAMDWELLLRFIHAGAVFRHLPGLFGAFRVHGQQKSQAEFLVRGIGEMNGLRLRYGGRNISFVRRIALHWAYLSQHRLADAAFEASLRKNG	failed
MKVTVTTLELKDKITIASKALAKKSVKPILAGFLFEVKDGNFYICATDLETGVKATVNAAEISGEARFVVPGDVIQKMVKVLPDEITELSLEGDALVISSGSTVFRITTMPADEFPEITPAESGITFEVDTSLLEEMVEKVIFAAAKDEFMRNLNGVFWELHKNLLRLVASDGFRLALAEEQIENEEEASFLLSLKSMKEVQNVLDNTTEPTITVRYDGRRVSLSTNDVETVMRVVDAEFPDYKRVIPETFKTKVVVSRKELRESLKRVMVIASKGSESVKFEIEENVMRLVSKSPDYGEVVDEVEVQKEGEDLVIAFNPKFIEDVLKHIETEEIEMNFVDSTSPCQINPLDISGYLYIVMPIRLA	not failed
EQYGDLPPRVFECRLAMVQPSSVVSGNNRWSTAANDMLKTVAQCGLIDIEVYSLFNNVAAVLIHMRDGIINDKLVELMLCRRSDEDYMSRKDHDFRLRRQ	failed
